These results are taken from article doi:10.1101/2024.07.29.605612 (bioRxiv, 2024).

The target in the experiment is ribosomal protein uS14 (Escherichia coli (endogenous in K-12 …, UniProt P0AG59 1-101)). Put plainly: cryo-EM structure.

B1: catalytically inactive mutant of RNase I (H55F/H133F) (enzyme)
chain: LALQAKQYGDFDRYVLALSWQTGFCQSQHDRNRNERDECRLQTETTNKADFLTVFGLWPGLPKSVAARGVDERRWMRFGCATRPIPNLPEARASRMCSSPETGLSLETAAKLSEVMPGAGGRSCLERYEYAKFGACFGFDPDAYFGTMVRLNQEIKESEAGKFLADNYGKTVSRRDFDAAFAKSWGKENVKAVKLTCQGNPAYLTEIQISIKADAINAPLSANSFLPQPHPGNCGKTFVIDKAGY
Turning to B1, the binding result is listed as “binds”.
